This assay deals with T1, GST-CCNE1 (UniProt P24864 1-410).
T1 construct: CYCLIN E1 (CCNE1), expressed in bacteria; also called GST-tagged CCEN1; GST-tagged CYCLIN E1
The assay can be described thus: pull-down; GST pull-down; His-SPOP and GST-CCNE1 expressed in bacteria and affinity purified. The following applies: both partners purified.

T1 sequence (P24864 whole entry): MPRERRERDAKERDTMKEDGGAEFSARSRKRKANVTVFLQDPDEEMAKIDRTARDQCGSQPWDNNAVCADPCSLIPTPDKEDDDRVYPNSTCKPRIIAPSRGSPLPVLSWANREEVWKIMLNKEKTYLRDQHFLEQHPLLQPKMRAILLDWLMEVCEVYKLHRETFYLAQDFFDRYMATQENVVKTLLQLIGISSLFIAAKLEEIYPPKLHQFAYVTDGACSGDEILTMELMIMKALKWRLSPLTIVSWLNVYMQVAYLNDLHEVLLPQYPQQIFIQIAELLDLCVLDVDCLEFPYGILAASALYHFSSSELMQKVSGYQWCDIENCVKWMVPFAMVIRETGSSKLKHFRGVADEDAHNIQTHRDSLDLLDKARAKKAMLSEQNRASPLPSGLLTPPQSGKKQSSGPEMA

B1: His-tagged SPOP (natural protein, UniProt O43791 1-374, looked up)
chain: MSRVPSPPPPAEMSSGPVAESWCYTQIKVVKFSYMWTINNFSFCREEMGEVIKSSTFSSGANDKLKWCLRVNPKGLDEESKDYLSLYLLLVSCPKSEVRAKFKFSILNAKGEETKAMESQRAYRFVQGKDWGFKKFIRRDFLLDEANGLLPDDKLTLFCEVSVVQDSVNISGQNTMNMVKVPECRLADELGGLWENSRFTDCCLCVAGQEFQAHKAILAARSPVFSAMFEHEMEESKKNRVEINDVEPEVFKEMMCFIYTGKAPNLDKMADDLLAAADKYALERLKVMCEDALCSNLSVENAAEILILADLHSADQLKTQAVDFINYHASDVLETSGWKSMVVSHPHLVAEAYRSLASAQCPFLGPPRKRLKQS
notes: SPOP, expressed in bacteria; also called His-SPOP
For the molecule B1, the binding result is recorded as “binds”.

The values above are taken from publication PMC6748103, “SPOP suppresses prostate cancer through regulation of CYCLIN E1 stability” (Cell Death and Differentiation, 2018).
